± gives the uncertainty stated by the source.
Assay: protein stability index of a GFP-peptide fusion (yeast GPS) (PSI 1-4); higher = more stable; sorted into four equal gates, so the index is relative within each strain
Procedure, shortened: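 Tiled 17-residue yeast protein peptides were fused downstream of GFP in a plasmid that also expresses Cherry, and the pooled library was carried in yeast. Mid-log cultures in leucine-free medium were sorted into four equal gates by GFP/Cherry fluorescence ratio, and plasmids from each gate were PCR-amplified and Illumina-sequenced, with reads assigned to strains by barcodes. The protein stability index for each peptide was each gate's read frequency times its gate number, summed.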

| Sequence | protein stability index (doa10∆) | protein stability index (pdr5∆) | protein stability index (san1∆) | protein stability index (ubr1∆) |
| --- | --- | --- | --- | --- |
| QTANEKHITVRLTAKRL [SRP14] | 2.75 ± 0.1 | 2.91 ± 0.09 | 2.94 ± 0.082 | 2.92 ± 0.065 |
| LYNFLHKYVLTLQLYMV [RGR1] | 2.04 ± 0.058 | 1.43 ± 0.042 | 1.78 ± 0.13 | 1.51 ± 0.039 |
| ITLIDSASLHLNYGVYL [RET1] | 2.4 ± 0.076 | 2.27 ± 0.081 | 2.83 ± 0.097 | 2.4 ± 0.063 |
| ADAGIELVDMAGAGEAN [MTR3] | 2.76 ± 0.11 | 2.69 ± 0.084 | 2.32 ± 0.1 | 2.9 ± 0.086 |
| SHINTNVGDNNSTASSS [ARP7] | 2.68 ± 0.095 | 3.02 ± 0.067 | 2.9 ± 0.062 | 2.84 ± 0.066 |
| SKMYNTDKKAFLGALKY [PRP8] | 2.52 ± 0.092 | 2.27 ± 0.071 | 2.47 ± 0.1 | 2.63 ± 0.11 |
| SSQLNKLTDEQSSLDVA [SIR3] | 2.66 ± 0.088 | 2.93 ± 0.081 | 2.65 ± 0.09 | 2.97 ± 0.056 |
| NRSAKNSKNDSANVELF [YCS4] | 3.09 ± 0.093 | 3.29 ± 0.11 | 2.94 ± 0.12 | 3.39 ± 0.072 |
| ALNDVYLDADVAKLANW [YML031W/NDC1] | 2.85 ± 0.2 | 3.52 ± 0.22 | 3.67 ± 0.22 | 3.73 ± 0.24 |
| GSPKSATSKTSEMLAKY [CDC53] | 2.67 ± 0.075 | 2.48 ± 0.072 | 1.83 ± 0.1 | 3 ± 0.045 |
| SRIYKTIKVAGTPLLEV [SNU114] | 2.21 ± 0.052 | 2.38 ± 0.055 | 2.03 ± 0.071 | 2.23 ± 0.053 |
| KLHVAAKLPGHKSLIRS [YGL100W/SEH1] | 1.83 ± 0.11 | 2.03 ± 0.13 |  | 2.33 ± 0.094 |
| FRGIIRSQDVRSTDRDR [CSL4] |  |  |  | 2.9 ± 0.2 |
| ATQKESLEMVPKDTSAA [RGR1] | 3.25 ± 0.087 | 3.25 ± 0.07 | 3.09 ± 0.055 | 3.17 ± 0.05 |
| QRETMKERKLRENIAML [SMC1] | 3.42 ± 0.24 | 3.01 ± 0.19 | 3.04 ± 0.12 | 3.42 ± 0.066 |
| LAFIPNILALNLVSLLI [YML031W/NDC1] | 1.83 ± 0.073 | 1.38 ± 0.044 | 1.44 ± 0.098 | 1.73 ± 0.047 |
| DKNKLLLLAAQIVSYCS [SSN2] | 1.97 ± 0.039 | 1.66 ± 0.038 | 2.05 ± 0.06 | 1.74 ± 0.037 |
| LQSNSKLASTLEKISSS [SMC4] | 2.79 ± 0.04 | 2.52 ± 0.035 | 2.54 ± 0.037 | 2.53 ± 0.034 |
| VYANNPEVSDDGGLEEE [SIR3] | 2.97 ± 0.13 | 2.87 ± 0.12 | 2.52 ± 0.14 | 3.04 ± 0.09 |
| DQVLNLCLTEFENCYLE [FAS1] | 3.15 ± 0.1 | 3.2 ± 0.099 | 3.18 ± 0.14 | 3.25 ± 0.048 |
| TASKIIVIDVDYNKKQD [MED1] | 2.21 ± 0.083 | 2.58 ± 0.081 | 2.17 ± 0.055 | 2.65 ± 0.065 |
| MPRLEEIDDFNDIDDLD [SEC65] | 2.71 ± 0.1 | 3.09 ± 0.1 | 2.9 ± 0.088 | 3.23 ± 0.12 |
| SNSVFSPDGRNFQVEYA [PRE10] | 3.04 ± 0.057 | 2.91 ± 0.059 | 2.87 ± 0.049 | 2.79 ± 0.054 |
| NGVVIATEKKSSSPLAM [PRE8] | 2.91 ± 0.19 | 3 ± 0.17 | 2.55 ± 0.26 | 3.07 ± 0.11 |
| LKISGEEESLHVFQYAN [RPC37] | 1.85 ± 0.13 | 2.21 ± 0.13 | 2.27 ± 0.14 | 2.41 ± 0.071 |
| KFQETLLRQKIEQCKHP [ISW2] | 1.34 ± 0.068 | 1.47 ± 0.068 | 1.24 ± 0.13 | 1.21 ± 0.063 |
| GPRAVLTRQPTEGRSRD [RET1] | 3.43 ± 0.091 | 3.35 ± 0.066 | 3.1 ± 0.067 | 3.34 ± 0.057 |

| Sequence | protein stability index (doa10∆) | protein stability index (pdr5∆) | protein stability index (san1∆) | protein stability index (ubr1∆) |
| --- | --- | --- | --- | --- |
| NYEIVFDTVSNKLFTEP [YMR129W/POM152] | 2.97 ± 0.055 | 3.02 ± 0.06 | 2.88 ± 0.055 | 3.03 ± 0.032 |
| SDIVFIHQNAGRLLRAM [BRR2] | 1.73 ± 0.054 | 1.71 ± 0.054 | 1.9 ± 0.071 | 2.02 ± 0.06 |
| DDQCMLITTYSKLSKNI [SIN4] | 1.97 ± 0.065 | 2.42 ± 0.076 | 1.87 ± 0.2 | 2.01 ± 0.038 |
| FQYVIDESSGTSRIDEE [SMC4] | 2.93 ± 0.082 | 2.86 ± 0.09 | 2.05 ± 0.15 | 3.23 ± 0.13 |
| HKQIHTTIFVKSTTPYV [POP7] | 2.15 ± 0.045 | 2.31 ± 0.05 | 2.15 ± 0.062 | 1.82 ± 0.03 |
| KIHQQLLFKARLQQQQA [GAL11] | 1.3 ± 0.088 | 1.26 ± 0.089 | 1.25 ± 0.15 | 1.33 ± 0.069 |
| LRNYLTPNVREEKQKSY [PUP1] | 3.41 ± 0.21 | 2.88 ± 0.15 | 3.39 ± 0.085 | 3.27 ± 0.16 |
| NLLKVSVDICNNSKSRY [ECM29] | 2.04 ± 0.07 | 2.2 ± 0.066 | 2.9 ± 0.052 | 2.02 ± 0.054 |
| EYIDAEEEESILIAMQP [RPB2] | 3.37 ± 0.076 | 3.41 ± 0.091 | 3.13 ± 0.067 | 3.46 ± 0.091 |
| AQHESFLRQKICLMTLI [RPN9] | 1.26 ± 0.072 | 1.33 ± 0.082 | 1.15 ± 0.11 | 1.56 ± 0.064 |
| CNALIHIKFSAGTEANA [SRB4] | 1.96 ± 0.05 | 2.31 ± 0.039 | 2.19 ± 0.054 | 2.33 ± 0.034 |
| LMISPKDEETTEKARLI [RRI2] | 2.8 ± 0.15 | 3.27 ± 0.18 |  | 3.04 ± 0.14 |
| AAIKDLDDFGEEELFEV [RRP43] | 2.46 ± 0.11 | 2.49 ± 0.14 | 2.17 ± 0.13 |  |
| CRNILGVTSLIKNLGLP [RPP1] | 1.81 ± 0.054 | 1.58 ± 0.051 | 1.23 ± 0.092 | 1.75 ± 0.045 |
| RSPTRRLELLQLSPVKN [SMC4] | 1.38 ± 0.26 | 1.64 ± 0.19 |  | 1.68 ± 0.13 |
| LGLFIHKISFSGTKSEV [YJL039C/NUP192] | 1.86 ± 0.072 | 2.14 ± 0.055 | 1.88 ± 0.085 | 2.12 ± 0.052 |
| LKAVTVEAGMIALRNGQ [RPT5] | 3.1 ± 0.23 | 2.9 ± 0.16 | 2.51 ± 0.17 |  |
| HMISQEGIKETQAKRIF [SWI1] | 3.1 ± 0.17 | 3.53 ± 0.21 | 3.19 ± 0.11 | 3.22 ± 0.13 |
| GQLEDFDSELIHLKQKL [SMC3] |  | 2.89 ± 0.16 | 3.23 ± 0.15 | 2.95 ± 0.17 |
| MESIGSDILTAEKMRGN [RRP4] | 3.1 ± 0.13 | 3.43 ± 0.12 | 3.14 ± 0.093 | 3.34 ± 0.092 |
| SSSDFRLHYYPKDPSNV [BRR2] | 3.21 ± 0.066 | 3.29 ± 0.06 | 3.47 ± 0.052 | 3.15 ± 0.042 |
| SDEVSRGIPRLSEDELR [SMC4] | 3.43 ± 0.14 | 3.69 ± 0.21 | 3.39 ± 0.14 | 3.58 ± 0.1 |
| RKKRTRRLKRKRRKVRA [RPL41A] | 3.14 ± 0.16 | 3.21 ± 0.13 | 3.15 ± 0.12 | 3.17 ± 0.086 |
| RSISKELIVSEEIPINS [SIR3] | 2.07 ± 0.051 | 2.09 ± 0.051 | 2.07 ± 0.07 | 1.99 ± 0.036 |
| IYRGVLNDENSDDYDNE [SMC1] | 3.19 ± 0.24 | 3.41 ± 0.15 | 3.21 ± 0.24 | 3.42 ± 0.14 |
| EVGPWGSARTRWEMEAF [FAS2] | 1.23 ± 0.077 | 1.62 ± 0.25 |  | 1.6 ± 0.13 |

Source: the supplement of paper PMC9732359
